# Test results as given in PMC12753870, “A novel fully human anti-ROR1 antibody PBA-0405 optimized for ADCC, induces potent anti-tumor activity against both solid and hematological malignancies” (Frontiers in Immunology, 2025).
# B1: 22.0405.aF (afucosylated form of 22.0405, fully human anti-ROR1 IgG1) (antibody, V domains shown)
# VH: EVQLLESGGGLVQPGGSLRLSCAASGFTFHKYGMAWVRQAPGKGLEWVSSIDDRGRYTYYADSVKGRFTISRDNSKNTLYLQMNSLRAEDTAVYYCARGSYIIWSALDYWGQGTLVTVSS
# VL: DIQMTQSPSSLSASVGDRVTITCRPNQNIATYINWYQQKPGKAPKLLIYHDNKRPSGVPSRFSGSGSGTDFTLTISSLQPEDFATYYCQQYEKLPWTFGQGTKVEIK
# B2: 22.0405 (native, fucose-containing fully human anti-ROR1 IgG1 mAb) (antibody, V domains shown)
# VH: B1 VH
# VL: B1 VL
# notes: human IgG1 heavy chain constant region; IgG1; source: CHOK1 cells (BioIntron, China)
# What was measured:
# [1] = biological target: recombinant FcγRIIIA (CD16), allotype 158F (UniProt P08637); assay: SPR; Biacore 8K; biotinylated recombinant FcγR proteins immobilised on CAP chips; antibodies as analytes in PBS-P+ buffer, 30 μL/min; 1:1 Langmuir model
# recombinant FcγRIIA 167H = recombinant FcγRIIA 167H (UniProt P12318); assay: SPR; Biacore 8K; biotinylated FcγR immobilised on CAP chip, antibody as analyte in PBS-P+, 30 µL/min; steady state affinity; doses of 22.0405.aF 240-4000 nM for CD32a, 3-200 nM for CD16b; the legend of Supplementary Figure 2 says 'BLI or SPR'
# recombinant FcγRIIIB = recombinant FcγRIIIB (UniProt O75015); assay: as above
# recombinant FcγRII B/C = recombinant FcγRII B/C (UniProt P31994); assay: SPR; Biacore 8K; biotinylated FcγR immobilised on CAP chip, antibody as analyte in PBS-P+, 30 µL/min; 1:1 Langmuir fit, KD = koff/kon; doses of 22.0405.aF 8-500 nM for CD64, 31-2000 nM for CD32b; the legend of Supplementary Figure 2 says 'BLI or SPR'
# recombinant FcγRI = recombinant FcγRI (UniProt P12314); assay: as above
# [2] = biological target: human ROR1 on transfected CHO-K1 cells (CHO-ROR1) (human) (UniProt Q01973)
# [3] = biological target: ROR1 endogenously expressed on JeKo-1 cells (human (endogenous in JeKo-1)) (UniProt Q01973)
# [4] = biological target: ROR1 endogenously expressed on JeKo-1 cells (human (endogenous in JeKo-1)) (UniProt Q01973); remark: listed apart in the source
# [5] = biological target: T1, recombinant Kringle (KRD) domain of human ROR1 (Homo sapiens, UniProt Q01973); assay: BLI; Octet RED384; antibodies immobilised on AR2G sensors; dipped in 500 nM recombinant Ig-like, Frizzled or Kringle domain for 150 s, dissociation 200 s; conditions: both partners purified
# T1 construct: ROR1, human, Kringle (KRD) domain; source: bought: Acro Biosystems
# [6] = biological target: T2, recombinant Ig-like (IG) domain of human ROR1 (aa 39–151) (Homo sapiens, UniProt Q01973); assay: as above; conditions: both partners purified
# T2 construct: ROR1, human, Ig-like domain, aa 39–151; source: bought: Acro Biosystems
# [7] = biological target: T3, human ROR2 on transfected CHO-K1 cells (CHO-ROR2) (Homo sapiens, UniProt Q01974); assay: flow cytometry on cells; antibody titrated on CHO-K1 cells transfected with ROR1, ROR2 or empty vector, or on cells expressing ROR1 endogenously (JeKo-1); 30 min on ice; detected with APC goat anti-human IgG Fcγ; conditions: one partner purified
# T3 construct: receptor tyrosine kinase-like orphan receptor 2 (ROR2), human; also called hROR-2; source: CHO-K1 cells, transfected, on cells
# [8] = biological target: T4, human ROR1 on transfected CHO-K1 cells (CHO-ROR1) (Homo sapiens, UniProt Q01973); assay: as above; conditions: one partner purified
# T4 construct: receptor tyrosine kinase-like orphan receptor 1 (ROR1), human; also called hROR1; CHO cells overexpressing ROR1; source: CHO-K1 cells, stably transfected, on cells
# [9] = biological target: T5, recombinant human ROR1/Fc (full-length extracellular domain of ROR1) (Homo sapiens, UniProt Q01973); assay: BLI; Octet RED384; antibodies captured on FAB2G (anti-hIgG CH1) biosensors at 5 μg/mL; ROR/Fc as analyte 200–3.13 nM in 10× Kinetics Buffer; 200 s association, 500 s dissociation; 1:2 (bivalent analyte) model; apparent KD = koff1/kon1; conditions: both partners purified
# T5 construct: receptor tyrosine kinase-like orphan receptor 1 (ROR1), human, full-length extracellular domain; Fitted as a bivalent analyte (1:2 model); also called hROR1; recombinant extracellular part of ROR1; source: bought: R&D Systems
# [10] = biological target: T6, recombinant mouse ROR1/Fc (Mus musculus, UniProt Q9Z139); assay: as above; conditions: both partners purified
# T6 construct: ROR1, mouse; also called mROR1; source: bought: R&D Systems
# [11] = biological target: recombinant FcγRIIIA (CD16), allotype 158V (UniProt P08637); assay: SPR; Biacore 8K; biotinylated recombinant FcγR proteins immobilised on CAP chips; antibodies as analytes in PBS-P+ buffer, 30 μL/min; 1:1 Langmuir model
# Chain of recombinant FcγRIIIA (CD16), allotype 158V (P08637 17-208 F176V): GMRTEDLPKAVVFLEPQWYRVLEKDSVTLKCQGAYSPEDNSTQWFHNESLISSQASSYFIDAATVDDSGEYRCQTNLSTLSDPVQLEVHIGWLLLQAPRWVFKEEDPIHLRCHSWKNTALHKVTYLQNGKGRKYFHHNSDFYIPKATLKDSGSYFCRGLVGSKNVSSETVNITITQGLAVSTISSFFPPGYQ
# Chain of recombinant FcγRIIIA (CD16), allotype 158F (P08637 17-208): as the sequence (P08637 17-208 F176V) above, with V160F counted along it
# Chain of recombinant FcγRII B/C (P31994 43-217): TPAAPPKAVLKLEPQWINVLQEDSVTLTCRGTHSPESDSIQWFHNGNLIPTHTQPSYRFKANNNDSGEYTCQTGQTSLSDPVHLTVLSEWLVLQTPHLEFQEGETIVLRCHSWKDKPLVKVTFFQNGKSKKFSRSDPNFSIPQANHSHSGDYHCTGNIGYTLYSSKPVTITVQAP
# Chain of recombinant FcγRI (P12314 16-292): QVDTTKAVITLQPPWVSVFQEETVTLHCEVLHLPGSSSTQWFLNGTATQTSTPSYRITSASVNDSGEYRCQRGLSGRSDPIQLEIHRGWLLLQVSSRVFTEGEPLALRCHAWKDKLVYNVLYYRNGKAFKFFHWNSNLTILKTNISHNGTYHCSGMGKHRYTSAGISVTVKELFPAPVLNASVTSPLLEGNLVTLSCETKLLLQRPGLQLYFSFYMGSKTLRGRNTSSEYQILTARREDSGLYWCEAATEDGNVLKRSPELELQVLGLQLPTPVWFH
# Chain of recombinant FcγRIIA 167H (P12318 34-217): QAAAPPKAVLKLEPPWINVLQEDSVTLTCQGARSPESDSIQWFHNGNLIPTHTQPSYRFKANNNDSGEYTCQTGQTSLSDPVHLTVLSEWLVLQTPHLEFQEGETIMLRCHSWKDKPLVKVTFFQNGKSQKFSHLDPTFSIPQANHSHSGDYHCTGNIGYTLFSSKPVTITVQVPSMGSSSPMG
# T6 sequence (Q9Z139 30-406): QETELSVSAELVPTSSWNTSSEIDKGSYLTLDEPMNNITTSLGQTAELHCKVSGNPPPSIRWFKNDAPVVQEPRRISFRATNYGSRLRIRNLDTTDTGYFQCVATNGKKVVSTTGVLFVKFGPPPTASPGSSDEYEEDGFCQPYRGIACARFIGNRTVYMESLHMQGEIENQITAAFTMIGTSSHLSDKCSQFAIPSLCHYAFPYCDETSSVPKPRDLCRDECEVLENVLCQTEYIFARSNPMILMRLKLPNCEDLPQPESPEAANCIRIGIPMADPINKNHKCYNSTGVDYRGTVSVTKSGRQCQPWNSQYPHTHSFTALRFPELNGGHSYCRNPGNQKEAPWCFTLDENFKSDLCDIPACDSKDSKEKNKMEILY
# Chain of recombinant FcγRIIIB (O75015 17-200): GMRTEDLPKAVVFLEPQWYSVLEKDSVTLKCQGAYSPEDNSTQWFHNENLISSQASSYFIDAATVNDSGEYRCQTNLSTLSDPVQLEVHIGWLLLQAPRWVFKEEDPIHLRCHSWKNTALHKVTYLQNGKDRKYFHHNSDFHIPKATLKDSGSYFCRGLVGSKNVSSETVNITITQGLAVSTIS
molecule,measurement,setting,value
"zilovertamab-like antibody (anti-ROR1 mAb mimicking zilovertamab, humanized native IgG1)",Kd,[1],3400 nM
zilovertamab-like antibody,Kd,recombinant FcγRIIA 167H,2200 nM
same,Kd,recombinant FcγRIIIB,> 4000 nM
same,Kd,recombinant FcγRII B/C,> 4000 nM
same,Kd,recombinant FcγRI,0.054 nM
B1,NK cell-mediated ADCC towards Raji cells overexpressing human ROR1 (Raji-ROR1); EC50; no statistically significant ADCC towards wild-type Raji cells,[2],0.002 nM
same,ADCC by healthy donor NK cells against primary B-CLL cells (65%–99% ROR1-positive); EC50,[3],0.018 nM
same,tumor cell killing with total PBMCs as effector cells; EC50,[4],0.02 nM
same,Kd,[1],57 nM
B2,binding result,[5],no binding (tested: 500 nM)
same,binding result,[6],no binding (tested: 500 nM)
same,binding result,[7],no binding
same,EC50,[8],0.56 nM
same,Kd,[9],60 nM
same,Kd,[10],240 nM
same,Kd,[1],690 nM
same,Kd,[11],217 nM
